Reference: patent US20220331401A1 (Stanford University, published 2022)
Each block holds one binder with its values, some of them ahead of it.

How the values were obtained:
[1] = target: T1, recombinant human CLCF1 (cardiotrophin-like cytokine factor 1), residues 28-225 (human, UniProt Q9UBD9 28-225); assay: microtiter plate-based assay (capture of the CNTFR construct, detection with anti-CLCF1)
T1 construct: Only one recombinant CLCF1 preparation is described; also called CLCF1-His; not shown: His tag (named CLCF1-His, detected with anti-HIS antibody)
T1 sequence: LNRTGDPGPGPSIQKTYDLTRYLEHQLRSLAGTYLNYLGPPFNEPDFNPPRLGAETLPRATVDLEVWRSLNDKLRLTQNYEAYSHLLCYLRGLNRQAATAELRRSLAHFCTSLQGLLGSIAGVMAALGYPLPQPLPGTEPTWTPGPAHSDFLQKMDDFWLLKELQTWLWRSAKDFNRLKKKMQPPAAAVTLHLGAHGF

[2] = target: T2, recombinantly produced CNTF (ciliary neurotrophic factor) (Homo sapiens (Human), UniProt P26441 1-200); assay: microtiter plate-based binding assay
T2 sequence: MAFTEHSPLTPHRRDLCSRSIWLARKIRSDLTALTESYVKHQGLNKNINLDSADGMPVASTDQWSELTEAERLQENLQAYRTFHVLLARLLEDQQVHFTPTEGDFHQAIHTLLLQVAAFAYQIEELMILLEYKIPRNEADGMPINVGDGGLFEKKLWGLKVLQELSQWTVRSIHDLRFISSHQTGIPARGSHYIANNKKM

mouse CLCF1 [3] = target: T3, mouse CLCF1 (mouse, UniProt Q9QZM3 28-225); assay: microtiter plate-based binding assay
T3 sequence (looked up): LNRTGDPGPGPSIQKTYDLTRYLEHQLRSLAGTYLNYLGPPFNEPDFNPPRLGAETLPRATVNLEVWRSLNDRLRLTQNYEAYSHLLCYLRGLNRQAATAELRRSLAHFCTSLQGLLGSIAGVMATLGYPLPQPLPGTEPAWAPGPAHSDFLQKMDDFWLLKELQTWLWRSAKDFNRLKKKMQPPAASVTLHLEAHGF

[4] = target: T4, recombinant human CLCF1 (cardiotrophin-like cytokine factor 1), residues 28-225 (UniProt Q9UBD9 28-225); assay: ELISA; ±4
T4 chain: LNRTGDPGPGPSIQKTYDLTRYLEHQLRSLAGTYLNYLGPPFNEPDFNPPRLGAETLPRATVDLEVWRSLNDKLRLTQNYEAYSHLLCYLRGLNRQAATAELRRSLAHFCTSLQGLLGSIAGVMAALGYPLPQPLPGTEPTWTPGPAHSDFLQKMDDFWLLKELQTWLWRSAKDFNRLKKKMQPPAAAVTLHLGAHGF

mouse CLCF1 [5] = target: T5, mouse CLCF1 (mouse, UniProt Q9QZM3 28-225); assay: ELISA; ±7
T5 chain: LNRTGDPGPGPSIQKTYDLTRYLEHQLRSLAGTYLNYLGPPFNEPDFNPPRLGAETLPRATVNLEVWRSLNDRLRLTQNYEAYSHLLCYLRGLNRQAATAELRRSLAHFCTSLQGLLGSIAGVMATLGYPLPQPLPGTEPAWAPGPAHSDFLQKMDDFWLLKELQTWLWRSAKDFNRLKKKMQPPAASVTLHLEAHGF

[6] = target: T4, recombinant human CLCF1 …; assay: ELISA; ±6
[7] = target: T1, recombinant human CLCF1 …; assay: yeast display, flow cytometry titration with CLCF1
Description: Directed evolution was used to engineer a soluble CNTFR variant with stronger affinity for CLCF1 and lack of binding to gp130 and LIFR. It was hypothesized that such a molecule would act as an efficient ligand trap and antagonize CLCF1-mediated oncogenic signaling. To develop a high-affinity receptor decoy, DNA encoding the extracellular domain of CNTFR was subjected to random mutagenesis via error-prone PCR. […] The library was screened to enrich for variants with increased CLCF1 binding using flow cytometry. After 3 rounds of screening, T174P and S237F appeared as consensus mutations, with substantial diversity observed at other amino acid positions. To probe additive effects of these mutations, 20 randomly selected distinct clones from the sorted populations were shuffled using the Staggered Extension Process (StEP) method to create a second library. A combination of equilibrium binding and kinetic off-rate screens were used to sort this library to impose increased screening stringency (FIG. 2, panel C). […]
Yeast displaying the CNTFR constructs were incubated with varying concentrations of CLCF1 for 12 h at room temperature to reach equilibrium binding. […] Then samples were washed and analyzed by flow cytometry using BD Accuri flow cytometer. Samples were analyzed on BD Bioscience software, and data were analyzed using FlowJo software (Treestar Inc).

[8] = target: T4, recombinant human CLCF1 …; assay: yeast display flow cytometry; apparent Kd, ±3
[9] = target: T4, recombinant human CLCF1 …; assay: yeast display flow cytometry; apparent Kd, ±0.003
[10] = target: T4, recombinant human CLCF1 …; assay: yeast display flow cytometry; apparent Kd, ±0.006
[11] = target: T4, recombinant human CLCF1 …; assay: yeast display flow cytometry; apparent Kd, ±0.07
[12] = target: T4, recombinant human CLCF1 …; assay: yeast display flow cytometry; apparent Kd, ±0.02
[13] = target: T4, recombinant human CLCF1 …; assay: yeast display flow cytometry; apparent Kd, ±0.4
[14] = target: T4, recombinant human CLCF1 …; assay: yeast display flow cytometry; apparent Kd, ±5

B4: Variant 3 (T174P, S237F, I287F) (protein)
chain: MAAPVPWACCAVLAAAAAVVYAQRHSPQEAPHVQYERLGSDVTLPCGTANWDAAVTWRVNGTDLAPDLLNGSQLVLHGLELGHSGLYACFHRDSWHLRHQVLLHVGLPPREPVLSCRSNTYPKGFYCSWHLPTPTYIPNTFNVTVLHGSKIMVCEKDPALKNRCHIRYMHLFSPIKYKVSISVSNALGHNATAITFDEFTIVKPDPPENVVARPVPSNPRRLEVTWQTPSTWPDPEFFPLKFFLRYRPLILDQWQHVELSDGTAHTITDAYAGKEYIIQVAAKDNEFGTWSDWSVAAHATPWTEEPRHLTTEAQAAETTTSTTSSLAPPPTTKICDPGELGSGGGPSAPFLVSVPITLALAAAAATASSLLI
Kd [10]: 0.049 nM

B5: Variant 5 (S237F, I287F) (protein)
chain: MAAPVPWACCAVLAAAAAVVYAQRHSPQEAPHVQYERLGSDVTLPCGTANWDAAVTWRVNGTDLAPDLLNGSQLVLHGLELGHSGLYACFHRDSWHLRHQVLLHVGLPPREPVLSCRSNTYPKGFYCSWHLPTPTYIPNTFNVTVLHGSKIMVCEKDPALKNRCHIRYMHLFSTIKYKVSISVSNALGHNATAITFDEFTIVKPDPPENVVARPVPSNPRRLEVTWQTPSTWPDPEFFPLKFFLRYRPLILDQWQHVELSDGTAHTITDAYAGKEYIIQVAAKDNEFGTWSDWSVAAHATPWTEEPRHLTTEAQAAETTTSTTSSLAPPPTTKICDPGELGSGGGPSAPFLVSVPITLALAAAAATASSLLI
Kd [11]: 0.04 nM

B6: Variant 2 (T174P, S237F) (protein)
chain: MAAPVPWACCAVLAAAAAVVYAQRHSPQEAPHVQYERLGSDVTLPCGTANWDAAVTWRVNGTDLAPDLLNGSQLVLHGLELGHSGLYACFHRDSWHLRHQVLLHVGLPPREPVLSCRSNTYPKGFYCSWHLPTPTYIPNTFNVTVLHGSKIMVCEKDPALKNRCHIRYMHLFSPIKYKVSISVSNALGHNATAITFDEFTIVKPDPPENVVARPVPSNPRRLEVTWQTPSTWPDPEFFPLKFFLRYRPLILDQWQHVELSDGTAHTITDAYAGKEYIIQVAAKDNEIGTWSDWSVAAHATPWTEEPRHLTTEAQAAETTTSTTSSLAPPPTTKICDPGELGSGGGPSAPFLVSVPITLALAAAAATASSLLI
Kd [12]: 0.89 nM

B7: Variant 1 (S237F) (protein)
chain: MAAPVPWACCAVLAAAAAVVYAQRHSPQEAPHVQYERLGSDVTLPCGTANWDAAVTWRVNGTDLAPDLLNGSQLVLHGLELGHSGLYACFHRDSWHLRHQVLLHVGLPPREPVLSCRSNTYPKGFYCSWHLPTPTYIPNTFNVTVLHGSKIMVCEKDPALKNRCHIRYMHLFSTIKYKVSISVSNALGHNATAITFDEFTIVKPDPPENVVARPVPSNPRRLEVTWQTPSTWPDPEFFPLKFFLRYRPLILDQWQHVELSDGTAHTITDAYAGKEYIIQVAAKDNEIGTWSDWSVAAHATPWTEEPRHLTTEAQAAETTTSTTSSLAPPPTTKICDPGELGSGGGPSAPFLVSVPITLALAAAAATASSLLI
Kd [13]: 41 nM

B8: Neg sort (R110Q, T174P, Y177H, K178N, S237F, I287F) (protein)
chain: MAAPVPWACCAVLAAAAAVVYAQRHSPQEAPHVQYERLGSDVTLPCGTANWDAAVTWRVNGTDLAPDLLNGSQLVLHGLELGHSGLYACFHRDSWHLRHQVLLHVGLPPQEPVLSCRSNTYPKGFYCSWHLPTPTYIPNTFNVTVLHGSKIMVCEKDPALKNRCHIRYMHLFSPIKHNVSISVSNALGHNATAITFDEFTIVKPDPPENVVARPVPSNPRRLEVTWQTPSTWPDPEFFPLKFFLRYRPLILDQWQHVELSDGTAHTITDAYAGKEYIIQVAAKDNEFGTWSDWSVAAHATPWTEEPRHLTTEAQAAETTTSTTSSLAPPPTTKICDPGELGSGGGPSAPFLVSVPITLALAAAAATASSLLI
Kd [14]: 0.014 nM

Second part, the binder after the results:

binding result [1]: binds | binding result [2]: no binding | binding result (mouse CLCF1 [3]): binds | Kd [4]: 0.063 nM | Kd (mouse CLCF1 [5]): 0.131 nM
B1: soluble eCNTFR fused to an antibody Fc domain (Fc fusion)
chain: QRHSPQEAPHVQYERLGSDVTLPCGTANWDAAVTWRVNGTDLAPDLLNGSQLVLHGLELGHSGLYACFHRDSWHLRHQVLLHVGLPPQEPVLSCRSNTYPKGFYCSWHLPTPTYIPNTFNVTVLHGSKIMVCEKDPALKNRCHIRYMHLFSPIKHNVSISVSNALGHNATAITFDEFTIVKPDPPENVVARPVPSNPRRLEVTWQTPSTWPDPEFFPLKFFLRYRPLILDQWQHVELSDGTAHTIAAAYAGKEYIIQVAAKDNEFGTWSDWSVAAHATPWTEEPRHLTTEAQAAETTTSTTSSLAPPPTTKICDPGELGSRRLEPRGPTIKPCPPCKCPAPNLLGGPSVFIFPPKIKDVLMISLSPIVTCVVVDVSEDDPDVQISWFVNNVEVHTAQTQTHREDYNSTLRVVSALPIQHQDWMSGKEFKCKVNNKDLPAPIERTISKPKGSVRAPQVYVLPPPEEEMTKKQVTLTCMVTDFMPEDIYVEWTNNGKTELNYKNTEPVLDSDGSYFMYSKLRVEKKNWVERNSYSCSVVHEGLHNHHTTKSFSRTPGK
notes: The tie is the identical set of eight mutations plus an Fc domain; also called eCNTFR-Fc

binding result [1]: binds | Kd [6]: 0.075 nM
B2: soluble eCNTFR with a C-terminal hexahistidine tag (receptor)
chain: QRHSPQEAPHVQYERLGSDVTLPCGTANWDAAVTWRVNGTDLAPDLLNGSQLVLHGLELGHSGLYACFHRDSWHLRHQVLLHVGLPPQEPVLSCRSNTYPKGFYCSWHLPTPTYIPNTFNVTVLHGSKIMVCEKDPALKNRCHIRYMHLFSPIKHNVSISVSNALGHNATAITFDEFTIVKPDPPENVVARPVPSNPRRLEVTWQTPSTWPDPEFFPLKFFLRYRPLILDQWQHVELSDGTAHTIAAAYAGKEYIIQVAAKDNEFGTWSDWSVAAHATPWTEEPRHLTTEAQAAETTTSTTSSLAPPPTTKICDPGELGS
notes: also called eCNTFR-His; not shown: C-terminal hexahistidine tag

Kd [7]: 0.02 nM | Kd [8]: 0.019 nM | Kd [9]: 0.019 nM
B3: yeast-displayed CNTFR variant 4 (R110Q, T174P, S237F, I287F) (receptor)
chain: AVVYAQRHSPQEAPHVQYERLGSDVTLPCGTANWDAAVTWRVNGTDLAPDLLNGSQLVLHGLELGHSGLYACFHRDSWHLRHQVLLHVGLPPQEPVLSCRSNTYPKGFYCSWHLPTPTYIPNTFNVTVLHGSKIMVCEKDPALKNRCHIRYMHLFSPIKYKVSISVSNALGHNATAITFDEFTIVKPDPPENVVARPVPSNPRRLEVTWQTPSTWPDPEFFPLKFFLRYRPLILDQWQHVELSDGTAHTITDAYAGKEYIIQVAAKDNEFGTWSDWSVAAHATPWTEEPRHLTTEAQAAETTTSTTSSLAPPPTTKICDPGELGS
notes: not shown: Aga2p fusion partner and linkers of the pCTCON2 yeast display plasmid; c-Myc tag used to detect expression
